# Measurements reported in the supplement of paper PMC10724198.
# ± gives the standard deviation of the averaged measurements.
# Tested on: Saccharomyces cerevisiae
# Experiment: protein stability index of tFT-peptide fusion (C-terminal peptide) (PSI (0-1 scale)); higher = more stable (slower turnover)
# Settings: genetic background: wild type; temperature: 30 C
# Method: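 Multiplexed protein stability (MPS) profiling in S. cerevisiae. Random 12-aa peptides (tFT-X12 library) are fused to the C-terminus of a sfGFP-mCherry tandem fluorescent timer, after mCherry and a GGGS linker. Cells are FACS-sorted into 8 mCherry/sfGFP bins and deep-sequenced. The protein stability index (PSI) is the read-weighted bin average, scaled from 0 (unstable) to 1 (stable). Only peptides with >10 reads are reported; cells were grown at 30 °C in SC-His with glucose.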
# 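Also: PSI is a weighted mean of sequencing reads over stability bins, variants kept only with over 10 reads, mCherry proximal and sfGFP distal, peptide attached via GGGS linker.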
row,Sequence,protein stability index
1,EVLTSRWCGLIS,0.744 ± 0.074
2,EVMAIISTRILG,0.647 ± 0.07
3,EVNGNYNIVGKA,0.652 ± 0.07
4,EVRDLSQFMKRY,0.727 ± 0.0092
5,EVRGKSVTIFVR,0.57 ± 0.025
6,EVTAQLCADKEP,0.564 ± 0.12
7,EVTDSVKTEPAT,0.6463 ± 0.0043
8,EVTEIAQFRDKR,0.7 ± 0.017
9,EVWGGVCWRAGG,0.735 ± 0.12
10,EVYPAEADVFGG,0.69 ± 0.052
11,EWEKPEDLHKPA,0.659 ± 0.058
12,EWGGGGGGGKCV,0.733 ± 0.054
13,EWQWGWGGVRRD,0.765 ± 0.032
14,EWTTTVLGGQLR,0.696 ± 0.027
15,EWVPDIANLRRR,0.752 ± 0.16
16,EYFKTKQKKKKE,0.753 ± 0.12
17,EYGECWCWSSWR,0.732 ± 0.059
18,FACAGPAAFHSL,0.597 ± 0.014
19,FADTALLCELLR,0.687 ± 0.033
20,FAKELSLRSFSA,0.814 ± 0.04
21,FALCLPPPSPPA,0.761 ± 0.026
22,FALFQSFCFFCF,0.564 ± 0.061
23,FALTHSRSPSTS,0.799 ± 0.1
24,FASSSDSLWRGI,0.679 ± 0.014
25,FATPDGFVSLWF,0.774 ± 0.14
26,FAVLSFRFPGGL,0.693 ± 0.099

row,Sequence,protein stability index
1,FAVSTVCWCCGL,0.647 ± 0.041
2,FCGGYHATVKMR,0.68 ± 0.015
3,FCNAVLSCFSIF,0.597 ± 0.0068
4,FCVVVAIVPLWG,0.512 ± 0.013
5,FCWVVFHSGISS,0.713 ± 0.085
6,FCYWCLGWGVGL,0.692 ± 0.059
7,FELYGVGLGTCA,0.633 ± 0.17
8,FEVAPAPLDQVV,0.653 ± 0.028
9,FFCTHFQLLFSP,0.641 ± 0.019
10,FFDKLEIRALVV,0.6302 ± 0.00098
11,FFERRLGYYSRM,0.85 ± 0.09
12,FFFLCLPSSFAF,0.614 ± 0.0098
13,FFGFLLFCSRFS,0.516 ± 0.016
14,FFMEKPSSGCTS,0.685 ± 0.017
15,FFPLSSLIAFLP,0.6815 ± 0.0025
16,FFPPLPATSVPA,0.561 ± 0.1
17,FFSFILGGFLLG,0.6682 ± 0.00082
18,FFSSHPCYFSTF,0.69 ± 0.072
19,FFSVLSAISFFF,0.628 ± 0.06
20,FFVGGVTDLFVS,0.724 ± 0.0092
21,FFWTTPRFPFPS,0.725 ± 0.021
22,FFYFSLSLSHFC,0.496 ± 0.025
23,FGAATLFLLAPC,0.55 ± 0.02
24,FGASYLGSLLDV,0.699 ± 0.057
25,FGCGLYPLRVLH,0.604 ± 0.034
26,FGCISAGLGWMY,0.721 ± 0.048

row,Sequence,protein stability index
1,FGCLGVLGAGRC,0.713 ± 0.034
2,FGGGGGGVGLAV,0.65 ± 0.033
3,FGGGSHRRGRCR,0.68 ± 0.018
4,FGGSTPVLKPTQ,0.719 ± 0.019
5,FGLWGFGRPRGW,0.721 ± 0.031
6,FGQERLHMSILF,0.692 ± 0.029
7,FGSLRLQITVNP,0.557 ± 0.098
8,FGTSLLPLPPPD,0.601 ± 0.025
9,FGVQTFIGPTIV,0.677 ± 0.012
10,FGVSIGELAGRH,0.686 ± 0.035
11,FGVTGLGVGLVW,0.639 ± 0.0066
12,FHFLCLVGSFRG,0.528 ± 0.037
13,FIGFGCGLVWSV,0.613 ± 0.019
14,FILERSLLSLQG,0.678 ± 0.18
15,FILLFGCFGFFC,0.557 ± 0.051
16,FIRDKQTSFDIR,0.68036 ± 0.00024
17,FKLVGRHLHSFD,0.652 ± 0.06
18,FKRLSTDCSVNS,0.687 ± 0.061
19,FKSVPTLPHPSP,0.6701 ± 0.0045
20,FLASFSSFMFYL,0.591 ± 0.016
21,FLDPFLTRRCVF,0.694 ± 0.055
22,FLFADVSSPSSI,0.725 ± 0.038
23,FLGGWVCGWPQF,0.772 ± 0.15
24,FLISSGPSVSVL,0.623 ± 0.026
25,FLLLSPARLVLL,0.5529 ± 0.0021
26,FLLYSSSAIPEH,0.759 ± 0.065

row,Sequence,protein stability index
1,FLRISPPPPSPP,0.676 ± 0.077
2,FLRLFLQQVEFL,0.7157 ± 0.0026
3,FLSFIADVTGKR,0.707 ± 0.019
4,FLSFLFTGFIQL,0.595 ± 0.017
5,FLSGPCLLSFAS,0.679 ± 0.12
6,FLVFRFPFGFSC,0.566 ± 0.025
7,FLVNVIRSCKGE,0.685 ± 0.059
8,FLWSSLYYARLD,0.75 ± 0.032
9,FLYDPVMLGLAC,0.469 ± 0.053
10,FMLGYIRPKWGG,0.714 ± 0.12
11,FMRASPSACTCL,0.668 ± 0.094
12,FMSMSYDEWAYL,0.721 ± 0.064
13,FMYRDVPFLRAP,0.697 ± 0.03
14,FNHYPSPPQRFY,0.685 ± 0.072
15,FNIIHKKNTKEI,0.778 ± 0.03
16,FNPRIGGDCRSA,0.678 ± 0.031
17,FNRTRRLPLDSL,0.7018 ± 0.0053
18,FPAYPLPPPAPN,0.697 ± 0.067
19,FPFDMTSTEMSL,0.639 ± 0.096
20,FPFGICMISCDG,0.628 ± 0.02
21,FPGSLVPVASVP,0.71 ± 0.089
22,FPHPSPPPFPPP,0.698 ± 0.026
23,FPLPPPPPAVFL,0.673 ± 0.086
24,FPLPPPPSLSTP,0.656 ± 0.036
25,FPLPSPPRPFSF,0.761 ± 0.041
26,FPPCSPPPPAPL,0.625 ± 0.05

row,Sequence,protein stability index
1,FPPLLFPPTPTR,0.842 ± 0.027
2,FPPLTRPSPIYP,0.726 ± 0.03
3,FPPPCVLPLPRT,0.723 ± 0.02
4,FPPPPPHTPSSA,0.694 ± 0.057
5,FPPTALESMPSS,0.737 ± 0.042
6,FPRLPSRPLSSL,0.6898 ± 0.0033
7,FPSFSLIFFSLI,0.489 ± 0.074
8,FPSLLFSSPSAF,0.7 ± 0.038
9,FPSPLLPYPLLP,0.747 ± 0.052
10,FPVGVRLNQNET,0.718 ± 0.017
11,FPVSPFPPPPSS,0.742 ± 0.16
12,FQAYPPFSLVPA,0.5533 ± 0.0029
13,FQEDSPVSQRYP,0.645 ± 0.041
14,FQGALFTEVVES,0.716 ± 0.043
15,FQNFTLSQEQSE,0.717 ± 0.014
16,FRCPGFYVVIFP,0.582 ± 0.0092
17,FRDLRSSVLVLP,0.6599 ± 0.0058
18,FRFVFFFRSGLV,0.595 ± 0.063
19,FRIVLIRASDPS,0.625 ± 0.032
20,FRLLLFPLPLSP,0.494 ± 0.011
21,FRLPTCLLLFPF,0.594 ± 0.098
22,FRPPVPPPPVLP,0.683 ± 0.012
23,FRSFLDHPRSPC,0.729 ± 0.029
24,FRVFLGHLITRK,0.727 ± 0.039
25,FRVKVFGLPFWL,0.509 ± 0.028
26,FSAFFLFMFCFL,0.488 ± 0.025

row,Sequence,protein stability index
1,FSCKGSYIFTRR,0.651 ± 0.012
2,FSCLRSINRDVG,0.702 ± 0.044
3,FSETDSWCQARS,0.717 ± 0.013
4,FSGGPSTPPTWS,0.817 ± 0.01
5,FSHPQPLLPFPV,0.662 ± 0.0094
6,FSISCFRVSSDF,0.761 ± 0.032
7,FSKVLCSIVRGR,0.655 ± 0.015
8,FSLFSLPFPFPL,0.7752 ± 0.0015
9,FSLLTFPPSSPT,0.716 ± 0.016
10,FSLPLSPRGDCP,0.6991 ± 0.0014
11,FSMHFARFFSCS,0.687 ± 0.061
12,FSPPTLSLPGPI,0.721 ± 0.0083
13,FSPRHSPFSVAR,0.803 ± 0.05
14,FSSGLAEVGVAR,0.676 ± 0.074
15,FSSLHLTHELLS,0.664 ± 0.061
16,FSTIWDRLLLTG,0.668 ± 0.083
17,FSVGSPLSSPGI,0.713 ± 0.04
18,FSVHVPPFPPVP,0.654 ± 0.038
19,FSYPPSLVPFCS,0.702 ± 0.019
20,FTACSVCVETMN,0.678 ± 0.17
21,FTGYPKHTRLPY,0.687 ± 0.017
22,FTKAVQVFLASV,0.635 ± 0.057
23,FTNDMSSGRVAI,0.692 ± 0.016
24,FTPPPPPPPPVL,0.6691 ± 0.0051
25,FVAGFAGGAVGV,0.72 ± 0.0078
